Test results from US20200148765A1 (OSAKA UNIVERSITY, published 2020).
Residue numbers refer to the chain shown, from its start.

B1: mouse anti-CLDN-5 antibody M23 (antibody, mouse IgG2b, V domains shown)
VH: EVQLQQSGPVLVKPGPSVMISCKASGFTFTDYYMHWVKQSHGKSLEWIGLVYPYNGGTDYNQKFKGKATLTVDTSSSTAYMELNSLTSEDSAVYYCARCLYDGLYFYAMDYWGQGTSVTVSS
VL: DIVMSQSPSSLAVSAGEKVTMTCKSSQSLLNSRARKNYLAWYQQKAGQSPKLLMYWASTRESGVPDRFTASGSGTDFTLTISSVQAEDLAVFYCKQSYNLPWTFGGGTKLEIKR
notes: Hybridoma monoclonal; also called antibody C
B2: rat anti-CLDN-5 antibody R2 (antibody, rat IgG2a, V domains shown)
VH: QVQLKESGPGLVQPSQTLSLTCTVSGLSLIRNSVSWIRQPPGKGLEWMGVIWSNGGTEYNSTVKSRLSISRDTSKNQVFLKMNSLQTEDSAMFFCARTPDGYYPYFDYWGQGVMVTVSS
VL: DIVLTQSPATLSVTPGESVSLSCRASQGISTSIHWYQQKSNESPRLLIRYASQSISRIPSRFSGSGSGTDFTLTINGVESEDLSVYYCQQSYNLPLTFGSGTKLEI
notes: Hybridoma monoclonal; also called antibody F
B3: mouse anti-CLDN-5 antibody M48 (antibody, mouse IgG3, V domains shown)
VH: QAYLQQSGAELVRPGASVKMSCKASGYTFTSYNMHWVKKTRRQGLEWIGAISPGNGNTSYNQKFKGKATLTVDKSSSTAYMQLSSLTSEDSAVYFCARDDGYYGALDYWGQGTSVTVSS
VL: B2 VL
notes: Hybridoma monoclonal; also called antibody E
B4: rat anti-CLDN-5 antibody R9 (antibody, rat IgG2b, V domains shown)
VH: QVTLKESGPGILQPSHTLSLTCSFSGFSLNTYGVGVNWIRQPSGKGLEWLASIWWHGKTYINPSLKNRLTVSKDPSNNQAFLEVTNVDPADTATYYCAHARAQLLDYWGQGVMVTVSS
VL: DIVMTQTPSSQAVSAGEKVTMSCKSSQSLLYSGDQKNYLAWYQQKPGQSPKLLIYLTSTRESGVPDRFIGSGSGTDFTLTISSVQAEDLADYYCQQHYSYPLTFGSGTKLEI
notes: Hybridoma monoclonal; also called antibody I
B5: rat anti-CLDN-5 antibody R14 (antibody, rat IgG2a, V domains shown)
VH: QVTLKESGPGILQPSHTLSLTCSFSGFSLSTYGMGVSWIRQPSGKGLEWLASIWWNGRTYTNPSLMSRLTVSKDTSTNQAFLRVTSVETADTATYYCAHTPYDYSNLGWFTYWGQGTLVTVSS
VL: B4 VL with V3L, M21V, N37S, T57A, E61K, S99T
notes: Hybridoma monoclonal; also called antibody K
B6: mouse anti-CLDN-5 antibody M3 (antibody, mouse IgG2b, V domains shown)
VH: EVQLQQSGPELVKPGASVKISCKASGYSFTGYYMNWVKQSPEKSLEWIGDINPSTGGATYNQKFKAKATLTVDKSSSTAYMQLKSLTSEDSAVFYCALYSNYGFVYWGQGTLVTVSA
VL: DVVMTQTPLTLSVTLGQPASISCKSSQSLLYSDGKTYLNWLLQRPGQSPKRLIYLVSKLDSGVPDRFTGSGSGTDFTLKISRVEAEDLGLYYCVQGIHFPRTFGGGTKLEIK
notes: Hybridoma monoclonal; also called antibody A
B7: mouse anti-CLDN-5 antibody M11 (antibody, mouse IgG2b, V domains shown)
VH: QVQLKQSGPGLVQPSQSLSITCTVSGFSLIRYGVHWVRQSPGKGLEWLGVKWSGGSTDYNGAFKSRLSISKDNSKSQVFFKMNSLQADDTAIYYCARGLDGYYVPDVWGTGTSVTVS
VL: DIVMTQSHKFMSTSVGDRVSITCKASQDVSTNVAWYQQKPGQSPTLLIYWASTRHTGVPDRFTGSGSGTDYTLTISSVQAEDLALYYCQQHYSTPLTFGAGTKLELRR
notes: Hybridoma monoclonal; also called antibody B
B8: rat anti-CLDN-5 antibody R3 (antibody, rat IgG2a, V domains shown)
VH: EVQLVESGGGLVQPGRSLKLSCAASGFTFSDYYMAWVRQAPKKGLEWVASISYEGRNTYYGDSVKGRFTISRDNAKSTLYLQMKSLRSEDTATYYCTRHPRRYFDYWGQGVMVTVSS
VL: DIVMTQSPSSLAVSAGETVTMNCRSSQSLFSSGDQKKFLAWYQQKPGQSPKLLISLASTRESGVPDRFIGSGSGTDFTLTINNMQAEDLAIYYCQQHYDIPYTFGAGTKLEL
notes: Hybridoma monoclonal; also called antibody G

How the values were obtained:
[1] = molecular target: T1, mCLDN-2 protein (mouse, UniProt O88552 1-230); experiment: FACS, hybridoma supernatant on CLDN-expressing cells
T1 construct: Expressed on cells by retrovirus; also called mouse Claudin-2 protein
T1 sequence: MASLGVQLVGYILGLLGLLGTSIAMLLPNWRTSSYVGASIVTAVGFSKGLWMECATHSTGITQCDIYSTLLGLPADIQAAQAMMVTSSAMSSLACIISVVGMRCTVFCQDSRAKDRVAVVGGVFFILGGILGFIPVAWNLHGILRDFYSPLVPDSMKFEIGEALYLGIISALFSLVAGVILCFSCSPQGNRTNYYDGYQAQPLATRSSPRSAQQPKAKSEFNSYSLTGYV
Source text: (§1) By the insertion of a DNA fragment consisting of an hCLDN-1 protein (SEQ ID NO: 30)-encoding sequence, an hCLDN-2 protein (SEQ ID NO: 31)-encoding sequence, an hCLDN-3 protein (SEQ ID NO 32)-encoding sequence, an hCLDN-4 protein (SEQ ID NO: 33)-encoding sequence, an hCLDN-6 protein (SEQ ID NO: 34)-encoding sequence, an hCLDN-7 protein (SEQ ID NO: 35)-encoding sequence, an mCLDN-1 protein (SEQ ID NO: 37)-encoding sequence, an mCLDN-2 protein (SEQ ID NO: 38)-encoding sequence, an mCLDN-3 protein (SEQ ID NO: 39)—encoding sequence, or an mCLDN-5 protein (SEQ ID NO: 29)-encoding sequence, vectors for preparing a retrovirus were obtained. By using these vectors and the vector for preparing a retrovirus prepared in Example 1-2), various CLDN protein-expressing cells were prepared. By using these cells and a culture supernatant of hybridomas producing antibodies as primary antibodies, FACS assay was performed by the following method.
(§2) The obtained CLDN-expressing cells were seeded in a 10 cm dish, and on the next day, the cells were collected. The primary antibodies (100 μL) were added to the obtained 1.0×10⁵ cells and allowed to react for 1 hour at 4° C. At this time, a mixed solution of a C-CPE mutant (C-CPEmt) and a mouse anti-His tag antibody (Abeam) used in Non-Patent Literature 3 was used as positive control. The cells were washed three times with 0.2% BSA-PBS, then mixed with 100 μL of a secondary antibody solution (FITC conjugated goat anti-mouse IgG or anti-rat IgG (Jackson Immune Research, 115-095-003 or 112-095-003) 400x diluted with 1% BSA-PBS, and allowed to react for 1 hour at 4° C. The cells were washed with 0.2% BSA-TBS and then analyzed using FACS caliber (BD Bioscience).

[2] = molecular target: T2, mCLDN-1 protein (mouse, UniProt O88551 1-211); experiment: as above
T2 construct: Expressed on cells by retrovirus; also called mouse Claudin-1 protein
T2 sequence: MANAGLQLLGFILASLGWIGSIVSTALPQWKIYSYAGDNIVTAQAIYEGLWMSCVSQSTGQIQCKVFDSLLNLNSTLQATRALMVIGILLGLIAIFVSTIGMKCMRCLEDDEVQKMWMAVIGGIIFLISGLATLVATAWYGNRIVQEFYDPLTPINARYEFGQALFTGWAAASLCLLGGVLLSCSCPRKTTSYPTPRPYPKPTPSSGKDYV
Source text: as §1, §2

[3] = molecular target: T3, mouse CLDN-5 protein (mouse, UniProt O54942 1-218); experiment: as above
T3 construct: Expressed on cells by retrovirus; also called mCLDN-5; MDCKII/mCLDN-5
T3 sequence: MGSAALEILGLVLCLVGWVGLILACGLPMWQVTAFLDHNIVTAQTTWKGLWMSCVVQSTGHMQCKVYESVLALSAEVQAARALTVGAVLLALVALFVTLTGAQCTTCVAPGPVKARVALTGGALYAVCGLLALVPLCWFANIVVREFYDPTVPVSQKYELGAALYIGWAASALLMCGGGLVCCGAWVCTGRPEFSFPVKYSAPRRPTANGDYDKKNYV
Source text: as §1, §2

[4] = molecular target: T4, mCLDN-3 protein (mouse, UniProt Q9Z0G9 1-219); experiment: as above
T4 construct: Expressed on cells by retrovirus; also called mouse Claudin-3 protein
T4 sequence: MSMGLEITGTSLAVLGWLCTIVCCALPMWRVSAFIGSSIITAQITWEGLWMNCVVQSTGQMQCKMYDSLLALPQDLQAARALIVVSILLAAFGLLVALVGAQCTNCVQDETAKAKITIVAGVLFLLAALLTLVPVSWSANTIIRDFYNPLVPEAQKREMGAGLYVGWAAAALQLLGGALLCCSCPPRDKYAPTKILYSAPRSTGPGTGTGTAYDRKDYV
Source text: as §1, §2

[5] = molecular target: T5, wild-type human CLDN-5 protein (human, UniProt O00501 1-218); experiment: FACS saturation binding on HT-1080/hCLDN-5, one-site fit; Lot 2
T5 construct: Four-transmembrane tight junction protein expressed by retrovirus on HT-1080 (or MDCKII) cells; also called hCLDN-5; human Claudin-5 protein
T5 sequence: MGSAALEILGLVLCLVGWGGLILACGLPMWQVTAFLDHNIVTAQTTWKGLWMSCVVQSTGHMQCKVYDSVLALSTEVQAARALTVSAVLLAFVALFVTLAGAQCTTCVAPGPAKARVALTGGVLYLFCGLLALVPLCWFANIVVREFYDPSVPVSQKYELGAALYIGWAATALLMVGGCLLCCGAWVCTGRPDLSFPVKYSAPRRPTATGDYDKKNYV
Protocol: as §2
(§3) By using HT-1080/hCLDN-5 and 100 μL of the anti-CLDN-5 antibody at each concentration diluted with 1.0% BSA-PBS, FACS assay was performed in the same manner as in Example 3-1). […] At this time, the equation of saturation binding-one site-specific binding of Graph Pad prism 7 (Graph Pad Software) was used.

[6] = molecular target: T6, crab-eating macaque CLDN-5 protein (crab-eating macaque, UniProt O00501 1-218 (human entry)); experiment: FACS on CLDN-5-expressing cells, antibody 5 µg/mL
T6 construct: Expressed on cells by retrovirus; also called cCLDN-5; MDCKII/cCLDN-5
T6 chain: T5 sequence with S86G, F127L, C179G, G190S
Protocol: as §2
In the same manner as in Example 1-2), a DNA fragment consisting of a cCLDN-5 protein (SEQ ID NO: 28)-encoding sequence or an mCLDN-5 protein (SEQ ID NO: 29)-encoding sequence was inserted into a pCX4pur vector, thereby obtaining vectors for preparing a retrovirus. By using these vectors with the vector for preparing a retrovirus prepared in Example 1-2), various animal species CLDN-5 protein-expressing cells were prepared. By using these cells and the antibodies (antibody concentration: 5 μg/mL, as primary antibody), FACS assay was performed in the same manner as in 3-1).

[7] = molecular target: T5, wild-type human CLDN-5 protein; experiment: FACS saturation binding on HT-1080/hCLDN-5, one-site fit; Lot 1
Protocol: as §2, §3

Binder | binding result [1] | binding result [2] | binding result [3] | binding result [4] | Kd [5] [nM] | binding result [6] | Kd [7] [nM]
B1 | no binding | no binding | no binding | no binding | 2.78 | binds | 3.77
B2 | no binding | no binding | no binding | no binding | 20.7 |  | 20.1
B3 | no binding | no binding |  | no binding | 8.47 |  | 29.1
B4 | no binding | no binding |  | no binding | 2.75 | binds | 3.78
B5 | no binding | no binding | no binding | no binding | 8.42 | binds | 4.66
B6 | no binding |  | no binding | no binding | 6.41 | binds | 3.89
B7 | no binding | no binding | no binding | no binding | 9.68 | binds | 8.72
B8 | no binding | no binding | no binding | no binding | 2.44 | binds | 7.19
